# Experimental data taken from patent publication US20240392262A1, “TRANSPOSASE AND USES THEREOF” (Poseida Therapeutics, Inc., published 2024).
# T1: GFP1 Right TAL-PBx (synthetic construct)
# T1 chain: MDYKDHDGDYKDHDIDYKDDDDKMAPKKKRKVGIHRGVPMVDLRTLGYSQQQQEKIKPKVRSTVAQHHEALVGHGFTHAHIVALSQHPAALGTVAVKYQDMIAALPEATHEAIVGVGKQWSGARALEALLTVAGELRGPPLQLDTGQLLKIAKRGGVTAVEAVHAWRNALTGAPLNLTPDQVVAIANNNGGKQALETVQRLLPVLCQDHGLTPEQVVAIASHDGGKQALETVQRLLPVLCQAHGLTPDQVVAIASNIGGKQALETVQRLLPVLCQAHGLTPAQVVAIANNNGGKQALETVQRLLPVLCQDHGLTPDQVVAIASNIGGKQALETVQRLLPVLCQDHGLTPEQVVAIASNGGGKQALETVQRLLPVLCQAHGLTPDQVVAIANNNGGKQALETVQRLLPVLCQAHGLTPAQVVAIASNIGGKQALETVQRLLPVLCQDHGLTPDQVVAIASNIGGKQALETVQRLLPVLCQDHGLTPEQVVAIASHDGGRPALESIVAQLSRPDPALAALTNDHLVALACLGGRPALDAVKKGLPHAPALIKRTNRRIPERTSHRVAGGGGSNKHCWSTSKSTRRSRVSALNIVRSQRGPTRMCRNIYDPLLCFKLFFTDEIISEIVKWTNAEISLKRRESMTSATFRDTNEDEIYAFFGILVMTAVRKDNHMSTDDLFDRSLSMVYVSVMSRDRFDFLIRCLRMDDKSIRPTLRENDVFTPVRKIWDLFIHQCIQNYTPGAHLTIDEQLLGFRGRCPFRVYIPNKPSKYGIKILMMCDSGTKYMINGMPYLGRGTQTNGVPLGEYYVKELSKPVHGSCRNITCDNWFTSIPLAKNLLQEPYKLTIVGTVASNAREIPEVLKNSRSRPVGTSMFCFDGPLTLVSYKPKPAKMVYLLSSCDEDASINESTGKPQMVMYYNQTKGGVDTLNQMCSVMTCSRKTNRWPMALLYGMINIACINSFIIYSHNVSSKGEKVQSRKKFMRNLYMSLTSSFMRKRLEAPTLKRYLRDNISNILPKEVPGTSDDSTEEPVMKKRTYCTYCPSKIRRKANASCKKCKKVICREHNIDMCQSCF
# T2: GFP1 Right NT-G TAL-PBx (synthetic construct)
# T2 chain: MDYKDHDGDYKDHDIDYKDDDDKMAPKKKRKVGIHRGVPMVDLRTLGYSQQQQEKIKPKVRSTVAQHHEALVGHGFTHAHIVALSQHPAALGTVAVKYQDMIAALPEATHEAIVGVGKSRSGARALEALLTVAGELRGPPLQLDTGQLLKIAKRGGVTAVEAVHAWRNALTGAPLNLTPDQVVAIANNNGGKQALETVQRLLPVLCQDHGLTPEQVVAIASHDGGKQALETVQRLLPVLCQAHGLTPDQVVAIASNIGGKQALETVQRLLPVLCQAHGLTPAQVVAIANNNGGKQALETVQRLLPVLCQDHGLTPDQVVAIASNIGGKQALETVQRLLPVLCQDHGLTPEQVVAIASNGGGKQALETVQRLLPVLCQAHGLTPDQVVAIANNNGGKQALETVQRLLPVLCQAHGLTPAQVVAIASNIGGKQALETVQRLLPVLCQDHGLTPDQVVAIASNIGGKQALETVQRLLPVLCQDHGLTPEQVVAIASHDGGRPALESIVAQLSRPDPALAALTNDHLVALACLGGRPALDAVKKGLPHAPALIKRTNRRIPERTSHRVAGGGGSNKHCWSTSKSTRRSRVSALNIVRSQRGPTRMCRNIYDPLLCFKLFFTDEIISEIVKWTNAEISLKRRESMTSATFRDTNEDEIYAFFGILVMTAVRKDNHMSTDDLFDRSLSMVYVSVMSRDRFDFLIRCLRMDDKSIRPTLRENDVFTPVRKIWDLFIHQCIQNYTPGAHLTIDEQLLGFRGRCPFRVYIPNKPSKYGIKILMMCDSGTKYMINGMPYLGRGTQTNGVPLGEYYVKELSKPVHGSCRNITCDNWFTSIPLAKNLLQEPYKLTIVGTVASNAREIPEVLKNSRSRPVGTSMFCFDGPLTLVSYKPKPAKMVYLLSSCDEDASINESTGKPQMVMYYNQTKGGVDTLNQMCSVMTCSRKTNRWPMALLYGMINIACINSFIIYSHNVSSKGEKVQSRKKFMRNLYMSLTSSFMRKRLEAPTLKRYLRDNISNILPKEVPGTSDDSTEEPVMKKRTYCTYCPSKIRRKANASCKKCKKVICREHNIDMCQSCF
# T3: GFP1 Right NT-betaN TAL-PBx (synthetic construct)
# T3 chain: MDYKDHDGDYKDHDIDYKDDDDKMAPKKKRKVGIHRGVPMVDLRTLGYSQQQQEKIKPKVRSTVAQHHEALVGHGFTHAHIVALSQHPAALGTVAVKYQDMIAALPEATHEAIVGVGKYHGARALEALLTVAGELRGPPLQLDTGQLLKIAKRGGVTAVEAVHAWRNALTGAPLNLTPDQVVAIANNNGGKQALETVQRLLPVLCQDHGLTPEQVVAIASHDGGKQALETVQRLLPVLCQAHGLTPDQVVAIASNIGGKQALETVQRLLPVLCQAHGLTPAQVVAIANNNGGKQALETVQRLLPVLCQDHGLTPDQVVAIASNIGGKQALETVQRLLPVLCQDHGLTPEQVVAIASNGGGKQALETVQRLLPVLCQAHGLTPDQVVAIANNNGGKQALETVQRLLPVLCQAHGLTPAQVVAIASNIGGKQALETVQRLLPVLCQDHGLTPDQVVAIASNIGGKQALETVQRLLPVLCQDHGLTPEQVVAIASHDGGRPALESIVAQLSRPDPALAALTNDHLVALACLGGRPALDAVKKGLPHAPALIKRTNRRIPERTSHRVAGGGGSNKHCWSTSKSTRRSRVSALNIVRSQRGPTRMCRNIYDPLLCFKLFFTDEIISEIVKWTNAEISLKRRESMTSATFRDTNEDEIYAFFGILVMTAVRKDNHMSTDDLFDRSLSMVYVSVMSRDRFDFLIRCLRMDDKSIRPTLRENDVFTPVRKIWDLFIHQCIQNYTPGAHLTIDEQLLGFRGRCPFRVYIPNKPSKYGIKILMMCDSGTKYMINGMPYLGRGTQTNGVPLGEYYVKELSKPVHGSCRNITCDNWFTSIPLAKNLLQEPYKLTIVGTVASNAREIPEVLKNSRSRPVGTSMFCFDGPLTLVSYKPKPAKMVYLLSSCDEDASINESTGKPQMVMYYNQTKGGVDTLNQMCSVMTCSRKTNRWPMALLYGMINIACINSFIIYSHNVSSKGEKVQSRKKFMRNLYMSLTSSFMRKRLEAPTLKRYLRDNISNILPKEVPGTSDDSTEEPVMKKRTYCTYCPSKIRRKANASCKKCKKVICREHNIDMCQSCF
# T4: PAH1 Left TAL-PBx (synthetic construct)
# T4 chain: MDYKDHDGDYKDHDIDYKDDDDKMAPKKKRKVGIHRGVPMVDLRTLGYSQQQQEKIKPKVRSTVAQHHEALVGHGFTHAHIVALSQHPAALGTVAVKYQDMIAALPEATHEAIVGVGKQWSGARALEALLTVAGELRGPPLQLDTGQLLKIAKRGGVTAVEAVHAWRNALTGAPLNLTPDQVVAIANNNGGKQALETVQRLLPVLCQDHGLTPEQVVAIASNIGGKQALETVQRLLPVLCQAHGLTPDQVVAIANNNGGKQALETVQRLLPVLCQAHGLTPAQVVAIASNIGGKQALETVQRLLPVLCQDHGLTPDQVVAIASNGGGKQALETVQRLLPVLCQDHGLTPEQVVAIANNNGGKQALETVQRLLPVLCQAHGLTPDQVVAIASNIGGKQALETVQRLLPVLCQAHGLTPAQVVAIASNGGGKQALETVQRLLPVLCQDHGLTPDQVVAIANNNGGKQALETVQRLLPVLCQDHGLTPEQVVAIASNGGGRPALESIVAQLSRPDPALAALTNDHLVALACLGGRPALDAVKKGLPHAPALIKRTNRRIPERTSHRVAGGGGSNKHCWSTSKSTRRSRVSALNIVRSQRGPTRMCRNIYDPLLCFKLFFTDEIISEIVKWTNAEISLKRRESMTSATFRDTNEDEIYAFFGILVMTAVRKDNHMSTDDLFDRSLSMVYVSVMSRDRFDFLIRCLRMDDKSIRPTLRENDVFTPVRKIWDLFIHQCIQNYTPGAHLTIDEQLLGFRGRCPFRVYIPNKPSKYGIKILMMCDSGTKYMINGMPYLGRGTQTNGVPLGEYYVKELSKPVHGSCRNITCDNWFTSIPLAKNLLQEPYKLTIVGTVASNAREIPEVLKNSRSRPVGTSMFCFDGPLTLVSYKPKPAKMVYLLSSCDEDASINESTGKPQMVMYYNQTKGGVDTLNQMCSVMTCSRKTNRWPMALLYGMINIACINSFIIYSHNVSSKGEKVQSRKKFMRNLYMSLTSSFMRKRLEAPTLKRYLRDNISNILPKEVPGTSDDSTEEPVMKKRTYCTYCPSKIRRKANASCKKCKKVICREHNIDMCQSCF
# T5: PAH1 Right TAL-PBx (synthetic construct)
# T5 chain: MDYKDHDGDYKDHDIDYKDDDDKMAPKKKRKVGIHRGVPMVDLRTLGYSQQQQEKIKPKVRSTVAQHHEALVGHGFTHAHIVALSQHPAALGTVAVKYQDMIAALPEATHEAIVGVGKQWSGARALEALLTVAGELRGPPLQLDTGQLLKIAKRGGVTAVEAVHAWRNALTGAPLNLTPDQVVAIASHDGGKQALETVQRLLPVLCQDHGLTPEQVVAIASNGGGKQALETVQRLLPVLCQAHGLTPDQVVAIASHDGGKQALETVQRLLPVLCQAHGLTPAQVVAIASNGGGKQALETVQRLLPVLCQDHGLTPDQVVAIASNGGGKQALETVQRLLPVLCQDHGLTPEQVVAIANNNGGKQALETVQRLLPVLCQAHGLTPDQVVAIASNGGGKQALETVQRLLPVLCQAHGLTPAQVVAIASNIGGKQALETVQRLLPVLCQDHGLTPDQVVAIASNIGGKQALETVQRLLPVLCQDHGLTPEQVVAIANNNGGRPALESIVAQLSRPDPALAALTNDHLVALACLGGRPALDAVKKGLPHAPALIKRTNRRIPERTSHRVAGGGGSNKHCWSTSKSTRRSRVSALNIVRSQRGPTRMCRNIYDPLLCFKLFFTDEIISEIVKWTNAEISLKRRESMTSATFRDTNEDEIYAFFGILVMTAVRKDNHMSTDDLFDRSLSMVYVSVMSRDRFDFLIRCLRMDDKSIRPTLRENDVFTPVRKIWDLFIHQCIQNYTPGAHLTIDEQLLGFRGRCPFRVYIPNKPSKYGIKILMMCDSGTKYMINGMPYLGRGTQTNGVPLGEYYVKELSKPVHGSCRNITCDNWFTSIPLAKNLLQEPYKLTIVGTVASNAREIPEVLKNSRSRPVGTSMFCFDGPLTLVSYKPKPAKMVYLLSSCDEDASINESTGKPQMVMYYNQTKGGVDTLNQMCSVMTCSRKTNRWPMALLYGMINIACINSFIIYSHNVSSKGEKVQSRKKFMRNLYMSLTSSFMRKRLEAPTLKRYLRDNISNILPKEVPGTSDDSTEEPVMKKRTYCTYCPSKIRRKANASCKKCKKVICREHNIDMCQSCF
# Columns and labels:
# GFP1 Right TAL-PBx = biological target: T1, GFP1 Right TAL-PBx; assay: cell_activity; settings: tags: 3xFlag, SV40 NLS; chain copies: 2
# GFP1 Right NT-G TAL-PBx = biological target: T2, GFP1 Right NT-G TAL-PBx; assay: cell_activity; settings: tags: 3xFlag, SV40 NLS; chain copies: 2
# [1] = biological target: T3, GFP1 Right NT-betaN TAL-PBx; assay: cell_activity; settings: tags: 3xFlag, SV40 NLS; chain copies: 2
# PAH1 Left TAL-PBx = biological target: T4, PAH1 Left TAL-PBx; assay: cell_activity; left only; settings: tags: 3xFlag, SV40 NLS
# PAH1 Right TAL-PBx = biological target: T5, PAH1 Right TAL-PBx; assay: cell_activity; right only; settings: tags: 3xFlag, SV40 NLS
Binder,activity (GFP1 Right TAL-PBx) [% GFP+],activity (GFP1 Right NT-G TAL-PBx) [% GFP+],activity [1] [% GFP+],activity (PAH1 Left TAL-PBx) [% GFP+],activity (PAH1 Right TAL-PBx) [% GFP+]
GFP1R 13 bp 5'A (dsDNA) DNA 1: AGCAGATGAACGCAATCTCACGGCTTAACTACTGACCTGAAGTTCATCTGCT DNA 2: AGCAGATGAACTTCAGGTCAGTAGTTAAGCCGTGAGATTGCGTTCATCTGCT,11.3,21.5,23.7,,
GFP1R 13 bp 5'C (dsDNA) DNA 1: CGCAGATGAACGCAATCTCACGGCTTAACTACTGACCTGAAGTTCATCTGCG DNA 2: CGCAGATGAACTTCAGGTCAGTAGTTAAGCCGTGAGATTGCGTTCATCTGCG,11.5,18.5,22.3,,
PAH1 target (dsDNA) DNA 1: TGAGATGATGTAACATCTATTCCATTAATTTCATTAACTTGCTTACAAGAGA DNA 2: TCTCTTGTAAGCAAGTTAATGAAATTAATGGAATAGATGTTACATCATCTCA,,,,5.7,4.2
